We go through two molecules from publication PMC8782954, “Interplay between an ATP-binding cassette F protein and the ribosome from Mycobacterium tuberculosis” (Nature Communications, 2022).

Sequences and labels used below:
B2: MtbEttA (energy-dependent translational throttle A from Mycobacterium tuberculosis, Rv2477c) (natural protein)
chain: SMAEFIYTMKKVRKAHGDKVILDDVTLSFYPGAKIGVVGPNGAGKSSVLRIMAGLDKPNNGDAFLATGATVGILQQEPPLNEDKTVRGNVEEGMGDIKIKLDRFNEVAELMATDYTDELMEEMGRLQEELDHADAWDLDAQLEQAMDALRCPPADEPVTNLSGGERRRVALCKLLLSKPDLLLLDEPTNHLDAESVQWLEQHLASYPGAILAVTHDRYFLDNVAEWILELDRGRAYPYEGNYSTYLEKKAERLAVQGRKDAKLQKRLTEELAWVRSGAKARQAKSKARLQRYEEMAAEAEKTRKLDFEEIQIPVGPRLGNVVVEVDHLDKGYDGRALIKDLSFSLPRNGIVGVIGPNGVGKTTLFKTIVGLETPDSGSVKVGETVKLSYVDQARAGIDPRKTVWEVVSDGLDYIQVGQTEVPSRAYVSAFGFKGPDQQKPAGVLSGGERNRLNLALTLKQGGNLILLDEPTNDLDVETLGSLENALLNFPGCAVVISHDRWFLDRTCTHILAWEGDDDNEAKWFWFEGNFGAYEENKVERLGVDAARPHRVTHRKLTRG
notes: also called Mtb Rv2477c

Data set [1] addresses B2. The data set can be described thus: cryo-EM structure. Conditions: both partners purified.
The data set “SEC” concerns the molecule itself. The data set can be described thus: SEC.

B1: ribosomal protein uS7 of the Mtb 30S subunit (natural protein)
chain: MPRKGPAPKRPLVNDPVYGSQLVTQLVNKVLLKGKKSLAERIVYGALEQARDKTGTDPVITLKRALDNVKPALEVRSRRVGGATYQVPVEVRPDRSTTLALRWLVGYSRQRREKTMIERLANEILDASNGLGASVKRREDTHKMAEANRAFAHYRW
Regarding B1, the binding result in data set [1] is “binds”.
As to B2, the “stoichiometry N” value in “SEC” worked out at 2.

As usually defined, the stoichiometry N is a count of units in the complex or per binding partner.
